Laboratory results as given in the nanobody polyreactivity screen of Harvey et al. (2022).

Test: yeast display, Sf9 membrane polyspecificity reagent, FACS + sequencing; frameworks hold sequencing errors
In short: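 A nanobody's polyreactivity label depends on the gate it was sorted from. Yeast display cells were stained with 10% biotinylated, detergent-solubilized Sf9 membrane reagent for 1 hour at 4 °C, enriched on streptavidin microbeads and sorted by FACS. The low and high (top ~1%) gates were set on anti-HA fluorescence for expression and streptavidin fluorescence for reagent binding.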

For “QVQLVESGGGLVQAGGILRLSCAASGSIFPFYAMGWYRQAPGKERELVATISWSGGRTYYADSVKGRFTISRDNANNTVYFQMNSLKPEVTAVYYCAAQSYDYWYDYDYWGQGTQVTVSS”, which “polyreactivity (PSR sort gate)” value is on record?
The value was “high polyreactivity”.

Which “polyreactivity (PSR sort gate)” value does the source give for “QVQLVESGGGLVQAGGILRLSCAASGSIFSFYAMGWYRQAPGKERELVAAITRSGGTYYADSVKGRFTISRDNAKNTVYLQMNSLKPEDTAVYYCAAQYWYYYIWWEYYYWGQGTQVTVSS” here?
Its value is “low polyreactivity”.

For “QVQLVESGGGLVQAGGILRLSCAASGSIFTRYAMGWYRQAPGKEREFVAAITWRGGRTSYADSVKGRFTISRDKAKNTVYLQMNSLKPEDTAVYYCNRRYPYRTYDYWGQGTQVTVSS”, which “polyreactivity (PSR sort gate)” value is on record?
Its value is “high polyreactivity”.

With “QVQLVESGGGLVQAGGILRLSCAASGSIFYAYAMGWNRQAPGKEAEFVARISGSGGSTYYADSVKGRFTISRDNAKNTVYLQMNSLKPEDTAVYYCAATRERYKYYKRYYWGQGTQVTVSS” as the sequence, how does the “polyreactivity (PSR sort gate)” value read?
The value was “low polyreactivity”.

With “QVQLVESGGGLVQAGGILRLSCAASGSIIVYNSMVCYRQAPGKERELVARITGRGGRTYYADSVKGRFTISRDNAKNTVYLQMNSLKPEDTAVYYCAKYGYWGQGTQVTVSS” as the sequence, how does the “polyreactivity (PSR sort gate)” value read?
The value was “high polyreactivity”.

With “QVQLVESGGGLVQAGGILRLSCAASGSIYYAMGWYRQAPGKERELVAGINSSGSTNYADSVKGRFTISRDNAKNTVYLQMNSLKPEDTAVYYCAARAIVSFDYWGQGTQVTVSS” as the sequence, how does the “polyreactivity (PSR sort gate)” value read?
Its value is “low polyreactivity”.

For “QVQLVESGGGLVQAGGILRLSCAASGSNFAPYAMGWYRQSPGKERELVATISASGGTTYYADSVKGRFTISRDTAKNTVYLQMNSLKPEDTAVYYCNADSNWYYLGNYYGLNDYWGQGTQVTVSS”, which “polyreactivity (PSR sort gate)” value is on record?
Its value is “low polyreactivity”.

With “QVQLVESGGGLVQAGGILRLSCAASGSTFYQYAMGWYRQAPGKERELVAAITRGGRTYYADSVKGRFTISRDNAKNTVYLQMNSLKPEDTAVYYCAAGYRTAYRGSSYYYWGQGTQVTVSS” as the sequence, how does the “polyreactivity (PSR sort gate)” value read?
Its value is “high polyreactivity”.

With “QVQLVESGGGLVQAGGILRLSCAASGSTSYIYAMGWYRQAPGKERELVAAITWRTGRTYYADSVKGRFTISRDNAKNTVYLQMNSLKPEDTAVYYCAATYYLSFAVKMYYWGQGTQVTVSS” as the sequence, how does the “polyreactivity (PSR sort gate)” value read?
The value was “high polyreactivity”.

For “QVQLVESGGGLVQAGGILRLSCAPSGSTFTFYAMGLYRQAPGKERELVAAINSSGGRTYYADSVKGRFTISRDNAKNTVYLQMNSLKPEDTAVYYCAARRPLVRYIMGYWGQGTQVTVSS”, which “polyreactivity (PSR sort gate)” value is on record?
The value was “high polyreactivity”.

For “QVQLVESGGGLVQAGGILRLSCASSGRIFTRYAMGWYRPAPGKEREFVAAINYRGSSTYYADSVKGRFTISRDNAKNTVYLQMNSLKPEETAVDYCNTYGQTDTYWRYYYWGQGTQVTVSS”, which “polyreactivity (PSR sort gate)” value is on record?
Its value is “high polyreactivity”.

Which “polyreactivity (PSR sort gate)” value does the source give for “QVQLVESGGGLVQAGGILRLSCASSGRTFRYYAKGWYRQAPGKERELVATISKSGGSTYYADSVKGRFTISRDNAKNTVYLQMNRLKPEDTAVYYCAAVGPYRWYDYWGQGTQVTVSS” here?
The value was “high polyreactivity”.

Which “polyreactivity (PSR sort gate)” value does the source give for “QVQLVESGGGLVQAGGILRLSCDASGRIFYTYAMGWYRHGPGQERELVAAISRSGTSTYYADSLKGRFTIARDNEKNHVYLQMNSLKPEDTAVYYCAIYKRLPDYGYWGQGTLVTVSS” here?
The value was “high polyreactivity”.

For “QVQLVESGGGLVQAGGILRLSCDASGSIFVYNAMGWYRQAPGKERELVAGITFIGGSTYYADSVKGRFTISRDNAKNTVYLQMNSLKPEDTAVYYCNADVAPGIFYGYDSWGQGTQVTVSS”, which “polyreactivity (PSR sort gate)” value is on record?
Its value is “low polyreactivity”.

Which “polyreactivity (PSR sort gate)” value does the source give for “QVQLVESGGGLVQAGGILRLSCPASGRTFEYYAMGWYRQAPGKERELVASISFGGGSTYADSVKGRFTISRDNAKNTVYLQMNSLKPEDTAVYYCAATGGWYKHWFDYWGQGTQVTVSS” here?
The value was “low polyreactivity”.

For “QVQLVESGGGLVQAGGILRLTCAASGRTNTYNAMGSYRQAPGKERELVAAITWSGGSTYYADSVKGRFTISRDNAKNTVYLQMNSLKPEDTAVYYCAKEFYYSSGFDYWGQGTQVTVSS”, which “polyreactivity (PSR sort gate)” value is on record?
The value was “low polyreactivity”.

Which “polyreactivity (PSR sort gate)” value does the source give for “QVQLVESGGGLVQAGGILSLSCAASGSTFVGNAMGWYRPAPGKERELVATISNSGGRTYYADSVKGRFTISRDNAKNTVYLQMNSLKPEETAVYYCAADPPAFGPGYSFDYWGHGTQVTVSS” here?
Its value is “low polyreactivity”.

With “QVQLVESGGGLVQAGGILSLSCADSGRIFDIYAMGWYRQAPGKERELVASISWSGDSTYYADSVKGRFTISRDNAKNTVYLQMNSLKPEDTAVYYCDAVGEDTEGYDFDYWGQGTQVTVSS” as the sequence, how does the “polyreactivity (PSR sort gate)” value read?
Its value is “low polyreactivity”.

With “QVQLVESGGGLVQAGGNLRLSCAASGLIFWYNAMGWYRQAPGKERELVAAINWSGDSTYYADSVKGRFTISRDNAKNTVYLQMNSLKPEDTAVYYCAATEQSYGYDYWGQGTQVTVSS” as the sequence, how does the “polyreactivity (PSR sort gate)” value read?
Its value is “low polyreactivity”.

Which “polyreactivity (PSR sort gate)” value does the source give for “QVQLVESGGGLVQAGGPLRLSCAASGIIFGFYAMGWYRQPPGKERELVADITSSGGSTYYADSVKGRFTISRDNAKNTVYLQINSLKPEDTAVYYCAADGVPGGPPVEGMDYWGQGTQVTVSS” here?
Its value is “low polyreactivity”.

With “QVQLVESGGGLVQAGGRHRLSCAASGRTFGVYAMGWYRQAPGKEREFVGVISWSDDSTYYADSVKGRFTISRDNAKNTVSLQMNSLKPEDTAVYYCNADDYLVYSGSHYGYWGQGTQVTVSS” as the sequence, how does the “polyreactivity (PSR sort gate)” value read?
Its value is “low polyreactivity”.

For “QVQLVESGGGLVQAGGRHRLSCAASGSIFTVYTIGWYRQAPGKEREFVAAINSRGGTTYYADSVKGRFTISRDNAKNTVYLQMNSLKPEDTAVYYCAAKQRPKSYGPGHYYWGQGTQVTVSS”, which “polyreactivity (PSR sort gate)” value is on record?
Its value is “high polyreactivity”.

Which “polyreactivity (PSR sort gate)” value does the source give for “QVQLVESGGGLVQAGGRHRLSCAPSASIFSVNAMGWYRQAPGKERELVAAISWRGASTYYADSVKGRFTISRDNPKNTVYLQMNSLKPEDTAVYYCAAKGTGGDQYYAFDYWGQGTQVTVSS” here?
Its value is “low polyreactivity”.

With “QVQLVESGGGLVQAGGRLLLSCAASGGTFRVYAMGWYIQAPGKERELVASISWSSGITYYADSVKGRFTISRDNAKNTVYLQMNSLKPEDTAFYYCAAEGHVTYGAPGRLYRMGYWGQGTQVTVSS” as the sequence, how does the “polyreactivity (PSR sort gate)” value read?
Its value is “low polyreactivity”.

For “QVQLVESGGGLVQAGGRLRFSCAASGRIFYSYTMGWYRQAPGKERELVASISRSSGDTYYADSVKGRFTISRDNAKNPVYLQMNSLKPEDTAVYYWAARIKTYSKRYYWGQGTQVTVSS”, which “polyreactivity (PSR sort gate)” value is on record?
Its value is “high polyreactivity”.

Which “polyreactivity (PSR sort gate)” value does the source give for “QVQLVESGGGLVQAGGRLRISSAASGFIFYVNAKGWYRQAPGKERELVAAISWSGGSTYYADSVKGRFTISRDNAKNTVYLQMNSLKPEDPAFYYCAAGASPYEGYDNWGQGTQVTVSS” here?
The value was “low polyreactivity”.

For “QVQLVESGGGLVQAGGRLRLICAASGFIFWKNAMGWYRQSPGKQRELVAAISTRGGSTYYADSVKGRFTISRDNAKNSVYLQMNSLKPEDTAVYYCNKEWYQYKHNYWGQGTQVSVSS”, which “polyreactivity (PSR sort gate)” value is on record?
The value was “low polyreactivity”.

With “QVQLVESGGGLVQAGGRLRLICAASGRTSRIYAMGWYRQAPGKWELVAAISGSGSRTYYADSVKGRFTISRDNAKNTVYFQMNSLKPEDTAVSYCNARYWYRHHPPEFDYWGQGTQVTVSS” as the sequence, how does the “polyreactivity (PSR sort gate)” value read?
Its value is “high polyreactivity”.

For “QVQLVESGGGLVQAGGRLRLICAASGSILNNYAMGWYRQAPGKERELVAAISSSGGTNYADSVKGRFTISRDNAKNTVYLQMNSLKPEDTAVYYCNADVLDGGYDYWGQGTQVTVSS”, which “polyreactivity (PSR sort gate)” value is on record?
Its value is “low polyreactivity”.

Which “polyreactivity (PSR sort gate)” value does the source give for “QVQLVESGGGLVQAGGRLRLRCAASGSTFGYYAMGWYRQAPGKERELVAAISRSGGITYYADSVKGRFTISRDNAKNTVYLQMNSLKPEDTAVYYCAADRNRYTGEDDSWGEGTQVTVSS” here?
The value was “low polyreactivity”.

With “QVQLVESGGGLVQAGGRLRLSCAASGFIFRPYAMGWYRQAPGKERELVPTISYRGGSTDYADSVKGRFTISRDNAKNTVYLQMNSLKPEDTAVYYCNAGYNRGYYYPVFAFFPYEYWGQGTQVTVSS” as the sequence, how does the “polyreactivity (PSR sort gate)” value read?
The value was “low polyreactivity”.

With “QVQLVESGGGLVQAGGRLRLSCAASGFTFPRYAMGWYRQAPGKERELVAAISRGGSTNYADSVKGRFTISRDNAKNTVYLQMNSLKPEDTAVYDCAKVLRRWPDPAWGMDYWGQGTQVTVSS” as the sequence, how does the “polyreactivity (PSR sort gate)” value read?
The value was “high polyreactivity”.

Which “polyreactivity (PSR sort gate)” value does the source give for “QVQLVESGGGLVQAGGRLRLSCAASGFTFRGYAMGWYRQAPGKERELVAAITKRGGSTYYADSVKGRFTISRDNAKNTVYLQMNSLKPEDTAVYYCNKYAGQTTYDYWGQGTQVTVSS” here?
The value was “high polyreactivity”.

With “QVQLVESGGGLVQAGGRLRLSCAASGFTFTRYTMGWYRQAPGKERELVARITRSGASTYYADSVKGRFTISRDNAKNTVYLQMNSLKPEDTAVYYCAADTWSYTTRYYYWGQGTQVTVSS” as the sequence, how does the “polyreactivity (PSR sort gate)” value read?
Its value is “high polyreactivity”.

With “QVQLVESGGGLVQAGGRLRLSCAASGFTFYNYAMGWYRQAPGKERELVAAISWSGGSTHYADSVKGRFTISRDNAKNTVFLQMNSLKPEDTAVYYCAKVGVLGYYTYYYWGQGTQVTVSS” as the sequence, how does the “polyreactivity (PSR sort gate)” value read?
Its value is “low polyreactivity”.

With “QVQLVESGGGLVQAGGRLRLSCAASGFTFYWNAMGWYRQAPGKERELVAAINWRGTSTYYADSVKGRFTISRDNAKNTVYLQMNSLKPEDTAVDYCNTYVYVEYDWGQGTQVTVSS” as the sequence, how does the “polyreactivity (PSR sort gate)” value read?
Its value is “high polyreactivity”.

With “QVQLVESGGGLVQAGGRLRLSCAASGFTFYYYTMGWYRQAPGKEREVVAAITWRGGSTNYADSVKGRFTISRDNAKNTVYLQMNSLKPEDTAVYYCAAVTYWFWPGMDYWGQGTQVTVSS” as the sequence, how does the “polyreactivity (PSR sort gate)” value read?
The value was “low polyreactivity”.

Which “polyreactivity (PSR sort gate)” value does the source give for “QVQLVESGGGLVQAGGRLRLSCAASGFTYRGNAMGWYRHAPGKERELVAAITSSDDSTYYADSVKGRFTISRDNAKITVYLQMNSLKPVDTAVYYCAAVANGYWTYEYWGQGTLVTVSS” here?
The value was “low polyreactivity”.

For “QVQLVESGGGLVQAGGRLRLSCAASGGTFHKYAMGWYRQAPGKERELVAGISRRTGTTYYADSVKGRFTISRDNAKNTVYLQMNSLKPEDTAVYYCATDWGRYSRLSKADPSDYWGQGTHVTVSS”, which “polyreactivity (PSR sort gate)” value is on record?
The value was “high polyreactivity”.

For “QVQLVESGGGLVQAGGRLRLSCAASGGTFYYYAMGWYRQAPGKERELVAAIRRRGGGTYSADSVKGRFTISRDNAKNTVYLQMNSLKPEDTAVYYCARDKLRSWWGDYNTYYPDDSWGQGTQVTVSS”, which “polyreactivity (PSR sort gate)” value is on record?
Its value is “high polyreactivity”.

Which “polyreactivity (PSR sort gate)” value does the source give for “QVQLVESGGGLVQAGGRLRLSCAASGIIFDTYVMGWYRQAPGKERELVAAITRSGGRTRYADSVKGRFTISRDNAKNTVYLQMNSLKPEDTAVYYCAARIPDRQDGYGYWGQGTQVTVSS” here?
The value was “high polyreactivity”.

Which “polyreactivity (PSR sort gate)” value does the source give for “QVQLVESGGGLVQAGGRLRLSCAASGITFRTYAMGWYREAPGKERELVDAITRRGGSTYYADSVKGRFTISRDNAKNTVYLQMNSLKPEDTAVYYCAVRHNGIQASVGYDYWGQGTQVTGSS” here?
The value was “high polyreactivity”.

Which “polyreactivity (PSR sort gate)” value does the source give for “QVQLVESGGGLVQAGGRLRLSCAASGITFSGYVLGWDRPAPGKERELVAAISSSGGRTYYADSVKGRFTISRDNAKNTVYLQMNSLKPEDTAVYYCAARFLYANRYSVDYDYWGQGTQVTVSS” here?
Its value is “high polyreactivity”.
